Laboratory results reported in publication PMC7900552, “Iris domestica (iso)flavone 7- and 3′-O-Glycosyltransferases Can Be Induced by CuCl2” (Frontiers in Plant Science, 2021).
Changes are numbered by the printed parent chain.

B1: BcUGT7 (Iris domestica) (protein)
chain: MQLKESVVLFPSVGMGHLIPMVELAKLFIGHGFSVTIVVVEPPFDASTTSGPFISRVSSEYPSISFHRLPKVVPPATSKPPMIVIYETLRLACPHLLDFLKTIRSTAKVRALVLDMFCTSALDVADELGLPSYFFFASGASALAAYLLLPTLQSKLDGNFRDLGSSPVHFPGVPPVPASDLLTHVQERGESNDGIMLHFKRFPRAKGIMINTPEWLEKRAVEALANGECLPDRTMPPVYCIGPLVANGSNGGEGGGERHECLAWLDAQPEKSVVFLCFGSLGSFSGEQLKEMAIGLERSGQLFLWVVRSPPLKDDPAARPGARPEPDLEALLPEGFLERTKGKGMVVKSWAPQAAVLAHGSVGGFVSHCGWNSTLEAVSSGVPIIAWPLYAEQRMNKVFLVEEAKVAVAMEGYDKDIVSAEEVEKKIRWLMESKDGKAMKDRAVEAKEKAVAAWKEDGSSSLAWLELERALRMGA
notes: full ORF in pCold-TF, E. coli, His-tag + trigger factor fusion (~105 kDa; UGT ~53 kDa), Ni-NTA
B2: BcUGT4 (Iris domestica) (protein)
chain: MQLKESVVLFPSVGMGHLIPMVELAKLFIGHGFSVTIVVVEPPFDVSTTNHPFISRVSSEYPSISFHRLPKVVPPATFRPPVIVLFETLRLACPQLLDFLKTIRSTSNVRALVLDMFCTSALDVADELGLPSYFFFASGASTLAAFLLFPTLQSKLDGNFRDLGSSPVHFPGLPPVPASDLPTQMQERGEANDGIMFHFKRLPRAKGIMINTPEWLEKRAVEALANGECLPDRTMPPVYCIGPLVASGSNGGGGGEGERHECLAWLDAQPKKSVVFLCFGSMGSFSAEQVKEMAVGLERSGQRFLWVVRSPPLKDDPAARPGARPEPDLEALLPEGFLERTKGKGMVVKSWAPQAAVLAHGSVGGFVSHCGWNSTLEAVSSGVPIIAWPLYAEQRMNKVFLVEEAKLAVAMEGYNKDVVSAEEVEKKIRWLMESEDGKALKDRAVEAKEKAVAAWKQEGSSFLAWLELVRAVRKEA
notes: as for B1
B3: BcUGT1 (Iris domestica) (protein)
chain: MQLKESVVLFPSMGMGHIIPMVELAKLFIGHGFSVTIVDVEPPFDDSTTKGPFISRISSEYPSISFHRLPKVIPPATSRPPVFAFIETLRLACPHLLDFLKTIRSTTNVRALVLDMFCTPALDVADELGLPSYFFFSSSASILAAFLFFPILQDKLDGNFRDLGSSPIHFPGLPPVPASDLPTQMQERGEANDGIMFHFNSYPRATGIMINTLEWLEKRAIEVLANGECLPDRTMPPVYCIGPLVATGSNEGEGEGEGEKHECLAWLDAQPEKSVVFLCFGSMGSFSAEQVKEIAIGLERSGQRFLWVVRSPPLKDDPAARHGARPEPDLEALLPEGFLERTKEKGMVVKSWAPQAAVLAHGSVGGFVSHCGWNSTLEAVSSGVPIIAWPLYAEQRMNKVFLVEEAKLAVAMEGYNKDVVSAEEVEKKIRWLMESEDGKALKDRAVEAKEKAVAAWKQEGSSFLAWLELVRAVRKEA
notes: as for B1
B4: BcUGT2 (Iris domestica) (protein)
chain: B3 chain with E344G, N416D, A440V, L441M, W456R, K457M, E459D, F463S
B5: BcUGT5 (Iris domestica) (protein)
chain: MQLKESVVLFPSVGMGHLIPMVELAKLFIGHGFSVTIVVVEPPFDVSTTNHPFISRVSSEYPSISFHRLPKVIPPATSRPPVFAFIETLRLACPHLLDFLKTIRSTSNVRALVLDMFCTSALDVADELGLPSYFFFASGASTLAAFLLLPTLQSKLDGNFRDLGSSPVHFPGLPPVPASDLLIHVQERGEANDEIMFHFKRLPRAKGIMINTMEWLEKRAVEALANGECLPDRTMPPVYCIGPLVASGSNGGGGEGERHECLAWLDAQPEKSVVFLCFGSMGSFSAEQVKEMAVGLERSGQRFLWVVRSPPLKDDPAARPGARPEPDLEALLPEGFLERTKGKGMVVKSWAPQAAVLAHGSVGGFVSHCGWNSTLEAVSSGVPIIAWPLYAEQRMNKVFLVEEAKLAVAMEGYNKDVVSAEEVEKKIRWLMESEDGKALKDRAVEAKEKAVAAWKQEGSSSLAWLELVRAVRKEA
notes: as for B1
B6: BcUGT8 (Iris domestica) (protein)
chain: MEFTQSVILYPSLGMGHLIPTLELAKLFIDQGFSVTIVVIDSPPSDTSSTMDSFISRASSAYPSLSFHRLPKVAPPASKLPMVFLSETVRLANASLLDFLSSKKSTSDIRAVVLDMFCSASLDIVEELHLPSYFFFSSSASALAACLFFPTLQSQLAGSFRDLGSSPVHFPGLPPIPASDLPADVQVRGESYDAALAHFVRLPRADGIMINTFESLEKRAVRALVDGVCVPGRATPPVYCIGPLIADGSDGGERHECLAWLDAQPERSVVFLCFGSMGSFSTEQLKETAGGLERSGQRFLWVVRSPPSDPAYPFGPRAETELEALLPEGFLERTRERGMVLESWAPQAAVLAHRSVGGFVSHCGWNSTLEAVCSGVPMLGWPLYAEQRMNRVSLVEEAKVAVAMEGCHNGLVSADEVETKIRRLMESRALGERMAATKERAVAARTEGGESTLALLELVRALRKATPGTGA
notes: as for B1

Substrate: COc1c(O)cc2occ(-c3ccc(O)cc3)c(=O)c2c1O
Test: purified protein
Details: 2 mM UDP-glucose, 1 mM DTT, 50 mM PBS, pH 8.0, 30°C, 10 min

| Protein | Km | kcat | kcat/Km |
| --- | --- | --- | --- |
| B1 | 1269 ± 9 µM | 15.86 ± 7.53 s⁻¹ | 19800 M⁻¹ s⁻¹ |
| B2 | 115 ± 23 µM | 155.18 ± 12.26 s⁻¹ | 1.35e+06 M⁻¹ s⁻¹ |
| B3 | 592 ± 49 µM | 57.29 ± 4.94 s⁻¹ | 96800 M⁻¹ s⁻¹ |
| B4 | 392 ± 7 µM | 70.10 ± 9.86 s⁻¹ | 179000 M⁻¹ s⁻¹ |
| B5 | 201 ± 15 µM | 116.03 ± 6.98 s⁻¹ | 577000 M⁻¹ s⁻¹ |

Substrate: COc1cc(-c2coc3cc(O)c(OC)c(O)c3c2=O)cc(O)c1OC
Test: HPLC glucosylation assay
Assay type: biochemical, Iris domestica
Details: 2 mM UDP-glucose, 1 mM DTT, 50 mM PBS, pH 8.0, 30°C, 10 min

| Protein | Km | kcat | kcat/Km |
| --- | --- | --- | --- |
| B1 | 894 ± 11 µM | 17.73 ± 9.89 s⁻¹ | 19800 M⁻¹ s⁻¹ |
| B2 | 190 ± 7 µM | 57.23 ± 18.21 s⁻¹ | 301000 M⁻¹ s⁻¹ |
| B3 | 210 ± 13 µM | 58.88 ± 3.24 s⁻¹ | 280000 M⁻¹ s⁻¹ |
| B5 | 121 ± 9 µM | 296.52 ± 11.8 s⁻¹ | 2.45e+06 M⁻¹ s⁻¹ |
| B6 | 1423 ± 21 µM | 11.97 ± 1.31 s⁻¹ | 8410 M⁻¹ s⁻¹ |
